# Key:
# [1] = target: T1, recombinant His-tagged human FcγRIIIa 176-Val (Sino Biological, Cat #10389-H27H1-B) (human, UniProt P08637 17-208); assay: SPR (Biacore): His-tagged FcγRIIIa-V captured on an anti-His chip, antibody injected
# T1 construct: Bought protein; also called FcγRIIIa-V; FcγRIIIa (176-Val [V]); not shown: His tag
# [2] = target: T2, recombinant His-tagged human FcγRIa (Sino Biological, Cat #10256-H08S-B) (human, UniProt P12314 16-288); assay: SPR (Biacore): His-tagged FcγRIa captured on an anti-His chip, antibody injected; resonance units against antibody concentration
# T2 construct: Bought protein; not shown: His tag
# Method: Binding of IgG1-CD27-A-P329R-E345R to human FcγR variants was analyzed using a Biacore surface plasmon resonance (SPR) system and compared to an anti-HIV gp120 antibody IgG1-b12 (ctrl). Biacore Series S Sensor Chips CM5 (Cytiva, Cat #29104988) were covalently coated with anti-His antibody using amine-coupling and His capture kits (Cytiva, Cat #BR100050 and Cat #29234602) according to the manufacturer's instructions. […] After three cycles of buffer, antibody samples were injected for 36 cycles to generate binding curves using antibody ranges of 0-3,000 nM for FcγRI and 0-10,000 nM for the other FcγRs. Each sample that was analyzed on an FcR-coated surface (Active Surface) was also analyzed on a parallel flow-cell without FcR (Reference Surface), which was used for background correction. Dissociation from the anti-His-coated surface was performed by regeneration of the surface using 10 mM Glycine-HCl pH 1.5 (Cytiva, Cat #BR100354). Sensograms were generated using Biacore Insight Evaluation software (Cytiva) and a four-parameter logistic (4PL) fit was applied to calculate relative binding of IgG1-CD27-A-P329R-E345R against the reference sample (ctrl).
# [3] = target: T3, human CD27 expressed on cells (T cells, transfected HEK293F cells, Daudi cells, NFκB-luc2/CD27 Jurkat … (human, UniProt P26842 20-240)); assay: flow cytometry on CD8+ T cells in human PBMC, FITC-conjugated goat anti-human IgG F(ab')2, median FITC
# T3 construct: also called TNFRSF7
# T3 sequence: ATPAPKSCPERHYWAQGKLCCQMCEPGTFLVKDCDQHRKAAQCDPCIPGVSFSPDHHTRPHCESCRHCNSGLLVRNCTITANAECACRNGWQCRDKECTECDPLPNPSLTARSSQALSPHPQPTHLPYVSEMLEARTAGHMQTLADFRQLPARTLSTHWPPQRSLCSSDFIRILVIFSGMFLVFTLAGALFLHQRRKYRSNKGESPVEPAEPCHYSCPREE
# Method: (§1) Binding of IgG1-CD27-A-P329R-E345R to CD27 on human healthy donor T cells was characterized in more detail using flow cytometry. Anti-HIV gp120 antibody variant IgG1-b12-P329R-E345R was used as non-binding control antibody (ctrl). Human PBMCs were isolated from buffy coats obtained from human healthy donors. PBMCs (1×10⁵ cells/well) in FACS buffer were added to polystyrene 96-well round-bottom plates (Greiner bio-one, Cat #650101) and pelleted by centrifugation at 300×g for 3 min at 4° C. The cells were resuspended in 50 μL/well serial antibody dilutions in FACS buffer (range 0.0015 to 10 μg/mL in 3-fold dilution steps) and incubated for 30 min at 4° C. Cells were pelleted, washed twice with FACS buffer and incubated in 50 μL/well with FITC-conjugated secondary antibody (FITC AffiniPure F(ab′)₂ fragment goat anti-human IgG, F(ab′)₂ fragment specific, Jackson ImmunoResearch, Cat #109-096-097, diluted 1:100) for 30 min at 4° C. in the dark. […] The samples were measured by flow cytometry on an LSRFortessa (BD) flow cytometer and analyzed using FlowJo software. Binding curves were analyzed using non-linear regression (sigmoidal dose-response with variable slope) using GraphPad Prism 8 software.
# [4] = target: T4, recombinant His-tagged human FcγRIIa 167-Arg (Sino Biological, Cat #10374-H27H1-B) (human, UniProt P12318 34-218); assay: SPR (Biacore): His-tagged FcγRIIa-R captured on an anti-His chip, antibody injected
# T4 construct: Bought protein; also called FcγRIIa-R; FcγRIIa (167-Arg [R]); not shown: His tag
# T4 sequence (looked up): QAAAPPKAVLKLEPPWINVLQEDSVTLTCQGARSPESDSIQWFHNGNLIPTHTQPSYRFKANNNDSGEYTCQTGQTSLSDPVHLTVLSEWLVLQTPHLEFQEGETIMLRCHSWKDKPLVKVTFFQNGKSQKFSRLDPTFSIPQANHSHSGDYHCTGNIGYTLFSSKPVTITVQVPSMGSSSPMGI
# [5] = target: T5, recombinant His-tagged human FcγRIIb (Sino Biological, Cat #10259-H27H-B) (human, UniProt P31994 43-217); assay: SPR (Biacore): His-tagged FcγRIIb captured on an anti-His chip, antibody injected
# T5 construct: Bought protein; not shown: His tag
# T5 sequence (looked up): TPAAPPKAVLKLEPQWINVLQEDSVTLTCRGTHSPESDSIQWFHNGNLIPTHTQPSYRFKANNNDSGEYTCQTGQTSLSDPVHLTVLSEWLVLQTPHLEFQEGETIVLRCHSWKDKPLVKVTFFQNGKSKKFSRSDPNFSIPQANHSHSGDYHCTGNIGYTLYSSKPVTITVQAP
# [6] = target: T6, human C1q (from normal human serum) (human, UniProt P02745 23-245; P02746 28-253; P02747 29-245); assay: flow cytometry: human T cells opsonised with the antibody, 20% normal human serum as source of C1q, FITC-labelled rabbit anti-human C1q
# T6 construct: 20% normal human serum was the source of C1q
# [7] = target: T3, human CD27 expressed on cells (T cells, …); assay: flow cytometry on CD4+ T cells in human PBMC, FITC-conjugated goat anti-human IgG F(ab')2, median FITC
# Method: as §1
# [8] = target: T7, recombinant His-tagged human FcγRIIIa 176-Phe (Sino Biological, Cat #10389-H27H-B) (human, UniProt P08637 17-208); assay: SPR (Biacore): His-tagged FcγRIIIa-F captured on an anti-His chip, antibody injected
# T7 construct: Bought protein; also called FcγRIIIa-F; FcγRIIIa (176-Phe [F]); not shown: His tag
# [9] = target: T8, recombinant His-tagged human FcγRIIa 167-His (Sino Biological, Cat #10374-H27H) (human, UniProt P12318 34-218); assay: SPR (Biacore): His-tagged FcγRIIa-H captured on an anti-His chip, antibody injected
# T8 construct: Bought protein; also called FcγRIIa-H; FcγRIIa (167-His [H]); not shown: His tag
# T8 sequence (looked up): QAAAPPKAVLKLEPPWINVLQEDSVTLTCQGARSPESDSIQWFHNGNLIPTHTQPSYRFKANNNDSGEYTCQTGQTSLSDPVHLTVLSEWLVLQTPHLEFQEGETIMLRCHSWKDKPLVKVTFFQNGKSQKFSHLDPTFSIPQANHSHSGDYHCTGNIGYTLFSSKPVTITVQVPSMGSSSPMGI
# [10] = target: T9, cynomolgus monkey CD27 expressed on cells (cynomolgus monkey T cells, transfected HEK293F cells) (cynomolgus monkey, UniProt P26842 20-260 (human entry)); assay: flow cytometry on T cells in cynomolgus monkey PBMC, PE-labelled goat anti-human IgG, median MFI PE
# T9 construct: also called cyno CD27
# T9 chain: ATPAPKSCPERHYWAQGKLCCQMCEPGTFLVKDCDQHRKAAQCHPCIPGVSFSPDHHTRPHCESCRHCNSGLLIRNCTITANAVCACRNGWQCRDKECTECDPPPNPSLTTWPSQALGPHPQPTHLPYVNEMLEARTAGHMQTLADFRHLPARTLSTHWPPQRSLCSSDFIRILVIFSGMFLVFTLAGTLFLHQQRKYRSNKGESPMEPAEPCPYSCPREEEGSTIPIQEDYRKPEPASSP
# [11] = target: T3, human CD27 expressed on cells (T cells, …); assay: flow cytometry on T cells in human PBMC, PE-labelled goat anti-human IgG, median MFI PE
# T6 sequence (P02745 23-245 limits assumed, chain 1 of 3): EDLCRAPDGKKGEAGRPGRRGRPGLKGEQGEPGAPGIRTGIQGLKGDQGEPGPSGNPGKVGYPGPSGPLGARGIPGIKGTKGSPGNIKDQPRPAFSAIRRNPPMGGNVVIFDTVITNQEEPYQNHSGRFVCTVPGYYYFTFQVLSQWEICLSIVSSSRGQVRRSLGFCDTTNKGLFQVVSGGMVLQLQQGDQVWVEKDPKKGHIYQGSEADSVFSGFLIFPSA
# T6 sequence (P02746 28-253 limits assumed, chain 2 of 3): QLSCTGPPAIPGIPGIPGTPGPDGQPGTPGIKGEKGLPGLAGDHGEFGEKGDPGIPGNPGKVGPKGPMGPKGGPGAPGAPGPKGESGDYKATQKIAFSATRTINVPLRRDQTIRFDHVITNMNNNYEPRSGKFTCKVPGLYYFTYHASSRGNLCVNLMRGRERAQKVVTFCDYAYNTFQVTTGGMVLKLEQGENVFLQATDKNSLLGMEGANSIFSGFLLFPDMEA
# T6 sequence (P02747 29-245 limits assumed, chain 3 of 3): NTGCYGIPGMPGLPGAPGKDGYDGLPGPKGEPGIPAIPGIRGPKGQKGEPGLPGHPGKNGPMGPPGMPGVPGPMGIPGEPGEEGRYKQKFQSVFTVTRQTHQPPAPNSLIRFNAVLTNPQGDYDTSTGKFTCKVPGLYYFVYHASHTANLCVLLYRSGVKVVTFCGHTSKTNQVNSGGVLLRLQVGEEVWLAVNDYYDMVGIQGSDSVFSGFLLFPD
# T2 sequence (P12314 16-288 limits assumed, stated change not applied): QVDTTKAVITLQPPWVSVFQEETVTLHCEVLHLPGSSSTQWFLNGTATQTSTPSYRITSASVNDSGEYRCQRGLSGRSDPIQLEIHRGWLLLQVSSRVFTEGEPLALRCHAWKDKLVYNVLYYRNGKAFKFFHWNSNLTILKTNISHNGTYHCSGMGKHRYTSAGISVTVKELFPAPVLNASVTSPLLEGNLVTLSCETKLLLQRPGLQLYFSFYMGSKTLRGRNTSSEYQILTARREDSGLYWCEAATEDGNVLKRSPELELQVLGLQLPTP
# T1 sequence (P08637 17-208 F176V limits assumed): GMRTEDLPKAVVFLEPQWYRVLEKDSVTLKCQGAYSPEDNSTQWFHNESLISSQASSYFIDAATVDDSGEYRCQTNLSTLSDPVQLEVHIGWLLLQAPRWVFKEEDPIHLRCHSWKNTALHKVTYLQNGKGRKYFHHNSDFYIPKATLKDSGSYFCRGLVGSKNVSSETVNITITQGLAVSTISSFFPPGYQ
# T7 sequence (P08637 17-208 limits assumed): as the sequence (P08637 17-208 F176V limits assumed) above, with V160F counted along it
binder,measurement,setting,value
"IgG1-CD27-A-P329R-E345R (antibody, also called IgG1-CD27-A-E345R-P329R) heavy: not shown light: QSALTQPASVSGSPGQSITISCTGTSSDVYYYNYVSWYQQHPGRAPKLVIYDVSNRPSGVSNRFSGSKSGNTASLTISGLRAEDEADYYCSSYTVNRVWVFGGGTKLTVLGQPKAAPSVTLFPPSSEELQANKATLVCLISDFYPGAVTVAWKADSSPVKAGVETTTPSKQSNNKYAASSYLSLTPEQWKSHRSYSCQVTHEGSTVEKTVAPTECS",binding result,[1],"no binding (tested: 10,000 nM)"
same,binding result,[2],binds
same,EC50 (read off the curve),[3],~0.03 µg/mL
same,binding result,[4],"no binding (tested: 10,000 nM)"
same,binding result,[5],"no binding (tested: 10,000 nM)"
same,binding result,[6],no binding (tested: 15 µg/mL)
same,EC50 (read off the curve),[7],~0.03 µg/mL
same,binding result,[8],"no binding (tested: 10,000 nM)"
same,binding result,[9],"no binding (tested: 10,000 nM)"
"IgG1-b12-FEAR (antibody, V domains shown, also called ctrl; anti-HIV-gp120 antibody IgG1-b12-FEAR) VH: QVQLVQSGAEVKKPGASVKVSCQASGYRFSNFVIHWVRQAPGQRFEWMGWINPYNGNKEFSAKFQDRVTFTADTSANTAYMELRSLRSADTAVYYCARVGPYSWDDSPQDNYYMDVWGKGTTVIVSS VL: EIVLTQSPGTLSLSPGERATFSCRSSHSIRSRRVAWYQHKPGQAPRLVIHGVSNRASGISDRFSGSGSGTDFTLTITRVEPEDFALYYCQVYGASSYTFGQGTKLERK",binding result,[10],no binding (tested: 10 µg/mL)
same,binding result,[11],no binding (tested: 10 µg/mL)

# — patent US20250325643A1 (Genmab, published 2025)
